These are literature values, as cited in publication PMC3740200 (Dalton transactions (Cambridge, England : 2003), 2012).

Where two headings read alike, the source gives them in different places.

The kcat is the number of substrate molecules converted per active site and unit of time at saturation.

The conditions of data set [1]: ref [2].
The conditions of data set [2]: ref [16].
For data set [3] the following is noted: 4 °C, ref [16].
For data set [4] the following is noted: ref [1]; for turnover number: 100 mM phosphate buffer pH 7, 25 °C.

B1: WT DaCld: wild-type chlorite dismutase from Dechloromonas aromatica, heme-binding pentameric enzyme (protein, UniProt Q47CX0 32-282, looked up)
Chlorite dismutase: QQAMQPMQSMKIERGTILTQPGVFGVFTMFKLRPDWNKVPVAERKGAAEEVKKLIEKHKDNVLVDLYLTRGLETNSDFFFRINAYDLAKAQTFMREFRSTTVGKNADVFETLVGVTKPLNYISKDKSPGLNAGLSSATYSGPAPRYVIVIPVKKNAEWWNMSPEERLKEMEVHTTPTLAYLVNVKRKLYHSTGLDDTDFITYFETDDLTAFNNLMLSLAQVKENKFHVRWGSPTTLGTIHSPEDVIKALAD
For B1, the “first order kobs of second step (PAA-independent)” value in data set [1] (pH 6.0) is 0.3 s⁻¹. Also, in data set [1] (pH 6), the “second order rate constant k, formation of Compound I with PAA” value was 190000 M⁻¹ s⁻¹. The “second order rate constant k, reaction with PAA” value in data set [1] (pH 8) was 1.3e+06 M⁻¹ s⁻¹. The “pKa of alkaline transition (5cHS to 6cLS)” value in data set [2] is on record as 8.9. The kcat was 120 ± 5 × 10^2 s^-1 in data set [3] (acidic form) and 460 s⁻¹ in data set [3] (alkaline form). The turnover number in data set [4] is reported as 1.7×10^4 ClO2^− ions/heme; in data set [4] (listed as WT), 17000 ClO2^− ions/heme. Further, the “turnovers before irreversibly inactivating” value in data set [4] is ~ 20,000 turnovers.
